According to patent US20240117030A1:
Read-outs that look alike come from different tables or passages of the source. Blank lines part the entries; values can stand above or below the binder they belong to.

Tests used:
[1] = molecular target: T1, biotinylated human IL-33 wild-type (WT), reduced with 3 mM DTT (human) (UniProt O95760); assay: KinExA solution affinity, fixed antigen format, global fit
T1 sequence (biotinylated (site not stated), looked up): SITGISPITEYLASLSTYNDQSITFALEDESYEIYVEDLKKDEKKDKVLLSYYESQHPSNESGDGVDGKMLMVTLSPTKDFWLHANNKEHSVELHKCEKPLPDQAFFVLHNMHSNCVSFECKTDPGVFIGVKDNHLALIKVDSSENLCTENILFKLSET

[2] = molecular target: recombinant human IL-33 (R&D Systems 3625-IL), reduced with DTT (human) (UniProt O95760); assay: cell-based or functional assay
[3] = molecular target: recombinant human IL-33 (R&D Systems 3625-IL), reduced with DTT (human) (UniProt O95760); assay: cell-based or functional assay; remark: listed apart in the source
[4] = molecular target: recombinant human IL-33 (R&D Systems 3625-IL) (human) (UniProt O95760); assay: cell-based or functional assay
[5] = molecular target: recombinant human IL-13 R110Q (human), P35225; assay: cell-based or functional assay
Chain of recombinant human IL-13 R110Q (human), P35225 (P35225 35-146, stated change not applied): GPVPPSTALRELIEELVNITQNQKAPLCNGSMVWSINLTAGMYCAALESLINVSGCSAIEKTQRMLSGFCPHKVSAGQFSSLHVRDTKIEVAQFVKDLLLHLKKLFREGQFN

- Kd [1]: 0.00066 nM
- IC50 [nM] versus reduced human IL-33 (R&D), IC50 (AVE) [2]: 0.018 nM
- IC50 [nM] versus reduced human IL-33 (R&D), IC50 (AVE) [3]: 0.011 nM
B1: IL33-0352 (Clinical Benchmark) (antibody, INN chains, looked up, V domains shown)
VH: EVQLVESGGNLEQPGGSLRLSCTASGFTFSRSAMNWVRRAPGKGLEWVSGISGSGGRTYYADSVKGRFTISRDNSKNTLYLQMNSLSAEDTAAYYCAKDSYTTSWYGGMDVWGHGTTVTVSS
VL: DIQMTQSPSSVSASVGDRVTITCRASQGIFSWLAWYQQKPGKAPKLLIYAASSLQSGVPSRFSGSGSGTDFTLTISSLQPEDFAIYYCQQANSVPITFGQGTRLEIK
modifications: IgG1 effector-null

- IC50 (pM) HEK-Blue IL-33 SEAP (mean) [4]: 56.4 pM
B3: IL33-310 (antibody, from a related filing, V domains shown)
VH: EVQLVESGGGLVQPGGSLRLSCAASGFTFSSFSMSWVRQAPGKGLEWVATISGGKTFTDYVDSVKGRFTISRDDSKNTLYLQMNSLRAEDTAVYYCTRANYGNWFFEVWGQGTLVTVSS
VL: EIVLTQSPATLSLSPGERATLSCRASESVAKYGLSLLNWFQQKPGQPPRLLIFAASNRGSGIPARFSGSGSGTDFTLTISSLEPEDFAVYYCQQSKEVPFTFGQGTKVEIKR

More lines, now with the values behind:

B2: IL33-265 (antibody, from a related filing, V domains shown)
VH: B1 VH
VL: DIQMTQSPSSVSASVGDRVTITCRASQGIFSWLAWYQQKPGKAPKLLIYAASSLQSGVPSRFSGSGSGTDFTLTISSLQPEDFAIYYCQQANSVPITFGQGTRLEIKR
- IC50 (pM) HEK-Blue IL-33 SEAP (mean) [4]: 15.9 pM

B4: IL13-0001 (antibody, human IgG1, kappa)
heavy: EVQLVESGGGLVQPGGSLRLSCAASGFTFSSYAMSWVRQAPGKGLEWVASISSGDTTYYPDSVKGRFTISRDNAKNSLYLQMNSLRAEDTAVYYCARNEGYYFGLTLWGQGTLVTVSSASTKGPSVFPLAPSSKSTSGGTAALGCLVKDYFPEPVTVSWNSGALTSGVHTFPAVLQSSGLYSLSSVVTVPSSSLGTQTYICNVNHKPSNTKVDKKVEPKSCDKTHTCPPCPAPEAAGAPSVFLFPPKPKDTLMISRTPEVTCVVVDVSHEDPEVKFNWYVDGVEVHNAKTKPREEQYNSTYRVVSVLTVLHQDWLNGKEYKCKVSNKALPAPIEKTISKAKGQPREPQVYTLPPSREEMTKNQVSLTCLVKGFYPSDIAVEWESNGQPENNYKTTPPVLDSDGSFFLYSKLTVDKSRWQQGNVFSCSVMHEALHNHYTQKSLSLSPGK
light: DIQMTQSPSSLSASVGDRVTITCKASESVDHFGWSLVHWYQQKPGKAPKLLIYRASNLESGVPSRFSGSGSGTDFTLTISSLQPEDFATYYCQQSNEDPWTFGGGTKVEIKRTVAAPSVFIFPPSDEQLKSGTASVVCLLNNFYPREAKVQWKVDNALQSGNSQESVTEQDSKDSTYSLSSTLTLSKADYEKHKVYACEVTHQGLSSPVTKSFNRGEC
- IC50 (median), Monocyte CD23 expression [5]: 0.0101 nM
- IC50 (median), STAT6 phosphorylation in HT-29 cells [5]: 0.104 nM
